Results published in patent publication US20250101089A1.

target: 6×His human TRIM21 PRYSPRY labelled with Alexa Fluor 488 (human) (UniProt P19474); test: fluorescence anisotropy; 5 nM Alexa Fluor 488-labelled human TRIM21 PRYSPRY, antibody titrated
Sequence of UniProt P19474 (P19474 287-465 limits assumed): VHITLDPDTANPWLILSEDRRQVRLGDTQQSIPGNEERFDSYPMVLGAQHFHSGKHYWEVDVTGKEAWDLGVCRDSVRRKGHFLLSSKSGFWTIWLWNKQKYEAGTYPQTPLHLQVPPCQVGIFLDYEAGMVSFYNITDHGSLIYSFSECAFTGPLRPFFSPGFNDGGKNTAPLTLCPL

**Q.** How did the Kd turn out when “AP422 T256P (mouse-human chimeric, human IgG1 Fc region) (antibody)” was run?
**A.** 700 pM

**Q.** Which Kd does the source give for “AP422 NALALA (N297A, L234A, L235A; mouse-human chimeric, human IgG1 Fc region) (antibody)” here?
**A.** 29000 pM

**Q.** “9C12 N297A T256P (mouse-human chimeric, human IgG1 Fc) (antibody)” was tested. Which Kd did it give?
**A.** 467 pM

**Q.** Which Kd does the source give for “AP422 N297A (mouse-human chimeric, human IgG1 Fc region) (antibody)” here?
**A.** 14000 pM

**Q.** Which Kd does the source give for “AP422 N297A T256P (mouse-human chimeric, human IgG1 Fc region) (antibody)” here?
**A.** 900 pM

**Q.** How did the Kd turn out when “9C12 T256P (mouse-human chimeric, human IgG1 Fc) (antibody)” was run?
**A.** 1000 pM

**Q.** And the fold increase in affinity against 9C12 WT?
**A.** 10 fold

**Q.** With “AP422 NALALA T256P (mouse-human chimeric, human IgG1 Fc region) (antibody)” as the substance, how does the Kd read?
**A.** 100 pM
